Results taken from US11965030 (Sanofi, dated 2024).

T1: GITR (UniProt Q9Y5U5 26-161, limits assumed)
T1 construct: construct not described; also called Glucocorticoid-Induce TNFR-Related Protein (GITR)
T1 sequence (looked up): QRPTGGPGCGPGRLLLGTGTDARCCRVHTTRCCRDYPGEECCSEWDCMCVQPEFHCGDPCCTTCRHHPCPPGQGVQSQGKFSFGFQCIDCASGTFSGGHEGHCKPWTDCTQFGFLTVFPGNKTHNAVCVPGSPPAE

T2: OX40 (UniProt P43489 29-216)
T2 construct: construct not described
T2 sequence (looked up): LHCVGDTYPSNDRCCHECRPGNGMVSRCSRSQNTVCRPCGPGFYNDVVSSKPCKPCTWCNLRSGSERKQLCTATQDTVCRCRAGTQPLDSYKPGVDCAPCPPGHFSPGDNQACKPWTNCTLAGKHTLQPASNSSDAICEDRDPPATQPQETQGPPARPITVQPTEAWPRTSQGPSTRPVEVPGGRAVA


Tests used:
CD40 [1] = biological target: T3, CD40 (UniProt P25942 21-193, limits assumed); assay: SPR (Biacore 3000), column 'Affinity'
T3 construct: construct not described
T3 sequence (P25942 21-193 limits assumed): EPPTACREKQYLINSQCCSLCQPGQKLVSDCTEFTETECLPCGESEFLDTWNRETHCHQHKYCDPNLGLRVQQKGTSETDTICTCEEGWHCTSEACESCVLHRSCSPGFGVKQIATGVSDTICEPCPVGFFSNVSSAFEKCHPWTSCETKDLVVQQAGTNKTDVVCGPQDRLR

CD40 [2] = biological target: T3, CD40; assay: SPR
PD-L1 = biological target: T4, PD-L1 (UniProt Q9NZQ7 19-239, limits assumed); assay: SPR (Biacore 3000), column 'Affinity'
T4 construct: construct not described; also called Programmed Cell Death Ligand 1 (PD-L1)
T4 sequence (Q9NZQ7 19-239 limits assumed): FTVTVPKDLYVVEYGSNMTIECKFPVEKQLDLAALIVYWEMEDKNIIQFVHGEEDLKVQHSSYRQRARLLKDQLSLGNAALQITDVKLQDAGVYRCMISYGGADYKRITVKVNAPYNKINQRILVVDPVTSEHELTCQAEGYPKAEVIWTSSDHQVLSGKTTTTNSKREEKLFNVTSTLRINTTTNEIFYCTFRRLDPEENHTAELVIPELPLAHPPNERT

GITR = biological target: T1, GITR; assay: SPR (Biacore 3000), column 'Affinity'
OX40 = biological target: T2, OX40; assay: SPR (Biacore 3000), column 'Affinity'

Row | Binder | Kd (CD40 [1]) | Kd (GITR) | Kd (OX40) | also measured
1 | CD40 (CH1: L143Q, S188V; CK: V133T, S176V) × PD-L1 (CH1: T192E; CK: N137K, S114A) (closed) (bispecific antibody, Tandem Fab; also called T13) light 1: DIQMTQSPSSVSASVGDRVTITCRASQGIYSWLAWYQQKPGKAPNLLIYTASTLQSGVPSRFSGSGSGTDFTLTISSLQPEDFATYYCQQANIFPLTFGGGTKVEIKRTVAAPAVFIFPPSDEQLKSGTASVVCLLKNFYPREAKVQWKVDNALQSGNSQESVTEQDSKDSTYSLSSTLTLSKADYEKHKVYACEVTHQGLSSPVTKSFNRGEC heavy: not shown light 2: not shown | 2.4 nM | – | – | –
2 | anti-CD40 × anti-PD-L1 Y-shaped antibody Y30 (bispecific antibody, CD40 arm wild type (knob); PD-L1 arm S114A,E123K,N137K / T192E,K221E (hole)) light 1: DIQMTQSPSSVSASVGDRVTITCRASQGIYSWLAWYQQKPGKAPNLLIYTASTLQSGVPSRFSGSGSGTDFTLTISSLQPEDFATYYCQQANIFPLTFGGGTKVEIKRTVAAPSVFIFPPSDEQLKSGTASVVCLLNNFYPREAKVQWKVDNALQSGNSQESVTEQDSKDSTYSLSSTLTLSKADYEKHKVYACEVTHQGLSSPVTKSFNRGEC heavy 1: not shown heavy 2: not shown light 2: not shown | – | – | – | binding result (CD40 [2]): binds
3 | PD-L1 (Q38E-Q39K)-(CH1: L143Q, S188V; CK: V133T, S176V) × OX40 (Q38K-Q39E)-(CH1: T192E; CK: N137K, S114A) (open) (bispecific antibody, Tandem Fab; also called T18) light 1: not shown heavy: not shown light 2: DIQMTQSPSSVSASVGDRVTITCRASQGIYSWLAWYQKKPGKAPNLLIYTASTLQSGVPSRFSGSGSGTDFTLTISSLQPEDFATYYCQQANIFPLTFGGGTKVEIKRTVAAPAVFIFPPSDEQLKSGTASVVCLLKNFYPREAKVQWKVDNALQSGNSQESVTEQDSKDSTYSLSSTLTLSKADYEKHKVYACEVTHQGLSSPVTKSFNRGEC | 2.1 nM | – | – | Kd (PD-L1): 0.023 nM
4 | GITR (Q38K-Q39E)-(CH1: T192E; CK: N137K, S114A) × OX40 (Q38E-Q39K)-(CH1: L143Q, S188V; CK: V133T, S176V) (closed) (bispecific antibody, Tandem Fab; also called T3) light 1: EIVMTQSPATLSVSPGERATLSCKASQNVGTNVAWYQKKPGQAPRLLIYSASYRYSGIPARFSGSGSGTEFTLTISSLQSEDFAVYYCQQYNTDPLTFGGGTKVEIKRTVAAPAVFIFPPSDEQLKSGTASVVCLLKNFYPREAKVQWKVDNALQSGNSQESVTEQDSKDSTYSLSSTLTLSKADYEKHKVYACEVTHQGLSSPVTKSFNRGEC heavy: not shown light 2: not shown | – | 0.3 nM | 0.3 nM | –
5 | OX40 (CH1: L143Q, S188V; CK: V133T, S176V) × GITR (CH1: T192E; CK: N137K, S114A) (closed) (bispecific antibody, Tandem Fab; also called T4) light 1: not shown heavy: not shown light 2: EIVMTQSPATLSVSPGERATLSCKASQNVGTNVAWYQQKPGQAPRLLIYSASYRYSGIPARFSGSGSGTEFTLTISSLQSEDFAVYYCQQYNTDPLTFGGGTKVEIKRTVAAPAVFIFPPSDEQLKSGTASVVCLLKNFYPREAKVQWKVDNALQSGNSQESVTEQDSKDSTYSLSSTLTLSKADYEKHKVYACEVTHQGLSSPVTKSFNRGEC | – | 0.9 nM | 0.2 nM | –
6 | GITR (CH1: T192E; CK: N137K, S114A) × OX40 (CH1: L143Q, S188V; CK: V133T, S176V) (open) (bispecific antibody, Tandem Fab; LC-2 as printed is the light chain that elsewhere goes with PD1 (EIVLTQ...SSNWPRT), not the OX40 light chain; also called T6) light 1: EIVMTQSPATLSVSPGERATLSCKASQNVGTNVAWYQQKPGQAPRLLIYSASYRYSGIPARFSGSGSGTEFTLTISSLQSEDFAVYYCQQYNTDPLTFGGGTKVEIKRTVAAPAVFIFPPSDEQLKSGTASVVCLLKNFYPREAKVQWKVDNALQSGNSQESVTEQDSKDSTYSLSSTLTLSKADYEKHKVYACEVTHQGLSSPVTKSFNRGEC heavy: not shown light 2: not shown | – | 0.5 nM | – | binding result (OX40): no binding
7 | OX40 (Q38E-Q39K)-(CH1: L143Q, S188V; CK: V133T, S176V) × GITR (Q38K-Q39E)-(CH1: T192E; CK: N137K, S114A) (open) (bispecific antibody, Tandem Fab; also called T9) light 1: not shown heavy: not shown light 2: EIVMTQSPATLSVSPGERATLSCKASQNVGTNVAWYQKKPGQAPRLLIYSASYRYSGIPARFSGSGSGTEFTLTISSLQSEDFAVYYCQQYNTDPLTFGGGTKVEIKRTVAAPAVFIFPPSDEQLKSGTASVVCLLKNFYPREAKVQWKVDNALQSGNSQESVTEQDSKDSTYSLSSTLTLSKADYEKHKVYACEVTHQGLSSPVTKSFNRGEC | – | 0.6 nM | 0.2 nM | –

The next lines start with results.

Row | Kd (CD40 [1]) | Kd (GITR) | Kd (OX40) | Binder | also measured
8 | 3.1 nM | – | – | CD40 (CH1: L143Q, S188V; CK: V133T, S176V) × PD-L1 (CH1: T192E; CK: N137K, S114A) (open) (bispecific antibody, Tandem Fab; also called T17) light 1: DIQMTQSPSSVSASVGDRVTITCRASQGIYSWLAWYQQKPGKAPNLLIYTASTLQSGVPSRFSGSGSGTDFTLTISSLQPEDFATYYCQQANIFPLTFGGGTKVEIKRTVAAPAVFIFPPSDEQLKSGTASVVCLLKNFYPREAKVQWKVDNALQSGNSQESVTEQDSKDSTYSLSSTLTLSKADYEKHKVYACEVTHQGLSSPVTKSFNRGEC heavy: not shown light 2: not shown | –
9 | 4 nM | – | – | PD-L1 (Q38K-Q39E)-(CH1: T192E; CK: N137K, S114A) × CD40 (Q38E-Q39K)-(CH1: L143Q, S188V; CK: V133T, S176V) (open) (bispecific antibody, Tandem Fab; also called T16) light 1: not shown heavy: not shown light 2: DIQMTQSPSSVSASVGDRVTITCRASQGIYSWLAWYQQKPGKAPNLLIYTASTLQSGVPSRFSGSGSGTDFTLTISSLQPEDFATYYCQQANIFPLTFGGGTKVEIKRTVAAPAVFIFPPSDEQLKSGTASVVCLLKNFYPREAKVQWKVDNALQSGNSQESVTEQDSKDSTYSLSSTLTLSKADYEKHKVYACEVTHQGLSSPVTKSFNRGEC | –
10 | 2.4 nM | – | – | CD40 (Q38E-Q39K)-(CH1: L143Q, S188V; CK: V133T, S176V) × PD-L1 (Q38K-Q39E)-(CH1: T192E; CK: N137K, S114A) (closed) (bispecific antibody, Tandem Fab; also called T14) light 1: not shown heavy: not shown light 2: DIQMTQSPSSVSASVGDRVTITCRASQGIYSWLAWYQKKPGKAPNLLIYTASTLQSGVPSRFSGSGSGTDFTLTISSLQPEDFATYYCQQANIFPLTFGGGTKVEIKRTVAAPAVFIFPPSDEQLKSGTASVVCLLKNFYPREAKVQWKVDNALQSGNSQESVTEQDSKDSTYSLSSTLTLSKADYEKHKVYACEVTHQGLSSPVTKSFNRGEC | Kd (PD-L1): 0.019 nM
11 | 1.6 nM | – | – | CD40 (Q38E-Q39K)-(CH1: L143Q, S188V; CK: V133T, S176V) × PD-L1 (Q38K-Q39E)-(CH1: T192E; CK: N137K, S114A) (open) (bispecific antibody, Tandem Fab; also called T26) light 1: DIQMTQSPSSVSASVGDRVTITCRASQGIYSWLAWYQKKPGKAPNLLIYTASTLQSGVPSRFSGSGSGTDFTLTISSLQPEDFATYYCQQANIFPLTFGGGTKVEIKRTVAAPAVFIFPPSDEQLKSGTASVVCLLKNFYPREAKVQWKVDNALQSGNSQESVTEQDSKDSTYSLSSTLTLSKADYEKHKVYACEVTHQGLSSPVTKSFNRGEC heavy: not shown light 2: not shown | Kd (PD-L1): 0.051 nM
12 | 1.7 nM | – | – | CD40 (Q38E-Q39K)-(CH1: L143Q, S188V; CK: V133T, S176V) × PD-L1 (Q38K-Q39E)-(CH1: T192E; CK: N137K, S114A) (closed) (bispecific antibody, Tandem Fab; Same printed name as T14; also called T22) light 1: DIQMTQSPSSVSASVGDRVTITCRASQGIYSWLAWYQKKPGKAPNLLIYTASTLQSGVPSRFSGSGSGTDFTLTISSLQPEDFATYYCQQANIFPLTFGGGTKVEIKRTVAAPAVFIFPPSDEQLKSGTASVVCLLKNFYPREAKVQWKVDNALQSGNSQESVTEQDSKDSTYSLSSTLTLSKADYEKHKVYACEVTHQGLSSPVTKSFNRGEC heavy: not shown light 2: not shown | Kd (PD-L1): 0.058 nM
13 | – | 0.6 nM | 0.3 nM | OX40 (CH1: L143Q, S188V; CK: V133T, S176V) × GITR (CH1: T192E; CK: N137K, S114A) (open) (bispecific antibody, Tandem Fab; also called T8) light 1: not shown heavy: not shown light 2: EIVMTQSPATLSVSPGERATLSCKASQNVGTNVAWYQQKPGQAPRLLIYSASYRYSGIPARFSGSGSGTEFTLTISSLQSEDFAVYYCQQYNTDPLTFGGGTKVEIKRTVAAPAVFIFPPSDEQLKSGTASVVCLLKNFYPREAKVQWKVDNALQSGNSQESVTEQDSKDSTYSLSSTLTLSKADYEKHKVYACEVTHQGLSSPVTKSFNRGEC | –
14 | – | 0.7 nM | 0.2 nM | OX40 (Q38E-Q39K)-(CH1: L143Q, S188V; CK: V133T, S176V) × GITR (Q38K-Q39E)-CH1: T192E; CK: N137K, S114A) closed) (bispecific antibody, Tandem Fab; also called T5) light 1: not shown heavy: not shown light 2: EIVMTQSPATLSVSPGERATLSCKASQNVGTNVAWYQKKPGQAPRLLIYSASYRYSGIPARFSGSGSGTEFTLTISSLQSEDFAVYYCQQYNTDPLTFGGGTKVEIKRTVAAPAVFIFPPSDEQLKSGTASVVCLLKNFYPREAKVQWKVDNALQSGNSQESVTEQDSKDSTYSLSSTLTLSKADYEKHKVYACEVTHQGLSSPVTKSFNRGEC | –
15 | – | 0.7 nM | 1 nM | GITR (Q38K-Q39E)-(CH1: T192E; CK: N137K, S114A) × OX40 (Q38E-Q39K)-(CH1: L143Q, S188V; CK: V133T, S176V) (open) (bispecific antibody, Tandem Fab; also called T7) light 1: EIVMTQSPATLSVSPGERATLSCKASQNVGTNVAWYQKKPGQAPRLLIYSASYRYSGIPARFSGSGSGTEFTLTISSLQSEDFAVYYCQQYNTDPLTFGGGTKVEIKRTVAAPAVFIFPPSDEQLKSGTASVVCLLKNFYPREAKVQWKVDNALQSGNSQESVTEQDSKDSTYSLSSTLTLSKADYEKHKVYACEVTHQGLSSPVTKSFNRGEC heavy: not shown light 2: not shown | –
